From patent US20200231681A1
“And” between values parts separate entries of the source, which are not always exact repeats. Identical values can stand only once. One block for each binder: values may come before it.

Assays:
[1] = molecular target: c-Met receptor on human tumor cells (MKN45, NCI-H820, HCC827) (human) (UniProt P08581); test: flow cytometry on MKN45 cells, (MFI 37° C. - IgG)/(MFI 4° C. - IgG) x 100
[2] = molecular target: c-Met receptor on human tumor cells (MKN45, NCI-H820, HCC827) (human) (UniProt P08581); test: flow cytometry on MKN45 cells, 100 nM antibody, 4° C. 1 hour (not internalized), anti-human kappa LC-FITC
[3] = molecular target: c-Met receptor on human tumor cells (MKN45, NCI-H820, HCC827) (human) (UniProt P08581); test: flow cytometry on MKN45 cells, 100 nM antibody overnight at 37° C., antibody left on the surface, anti-human kappa LC-FITC
[4] = molecular target: human FGF R3 (IIIc) Fc chimera (R&D systems, 766-FR) (human) (UniProt P22607); test: indirect ELISA, hu8C4 at 0.002 nM
[5] = molecular target: human FGF R3 (IIIc) Fc chimera (R&D systems, 766-FR) (human) (UniProt P22607); test: indirect ELISA, hu8C4 at 0.010 nM
[6] = molecular target: human FGF R3 (IIIc) Fc chimera (R&D systems, 766-FR) (human) (UniProt P22607); test: indirect ELISA, hu8C4 at 0.048 nM
[7] = molecular target: human FGF R3 (IIIc) Fc chimera (R&D systems, 766-FR) (human) (UniProt P22607); test: indirect ELISA, hu8C4 at 30.000 nM

c-Met receptor on human tumor cells (MKN45, NCI-H820, HCC827) (human), sequence (P08581 25-1390): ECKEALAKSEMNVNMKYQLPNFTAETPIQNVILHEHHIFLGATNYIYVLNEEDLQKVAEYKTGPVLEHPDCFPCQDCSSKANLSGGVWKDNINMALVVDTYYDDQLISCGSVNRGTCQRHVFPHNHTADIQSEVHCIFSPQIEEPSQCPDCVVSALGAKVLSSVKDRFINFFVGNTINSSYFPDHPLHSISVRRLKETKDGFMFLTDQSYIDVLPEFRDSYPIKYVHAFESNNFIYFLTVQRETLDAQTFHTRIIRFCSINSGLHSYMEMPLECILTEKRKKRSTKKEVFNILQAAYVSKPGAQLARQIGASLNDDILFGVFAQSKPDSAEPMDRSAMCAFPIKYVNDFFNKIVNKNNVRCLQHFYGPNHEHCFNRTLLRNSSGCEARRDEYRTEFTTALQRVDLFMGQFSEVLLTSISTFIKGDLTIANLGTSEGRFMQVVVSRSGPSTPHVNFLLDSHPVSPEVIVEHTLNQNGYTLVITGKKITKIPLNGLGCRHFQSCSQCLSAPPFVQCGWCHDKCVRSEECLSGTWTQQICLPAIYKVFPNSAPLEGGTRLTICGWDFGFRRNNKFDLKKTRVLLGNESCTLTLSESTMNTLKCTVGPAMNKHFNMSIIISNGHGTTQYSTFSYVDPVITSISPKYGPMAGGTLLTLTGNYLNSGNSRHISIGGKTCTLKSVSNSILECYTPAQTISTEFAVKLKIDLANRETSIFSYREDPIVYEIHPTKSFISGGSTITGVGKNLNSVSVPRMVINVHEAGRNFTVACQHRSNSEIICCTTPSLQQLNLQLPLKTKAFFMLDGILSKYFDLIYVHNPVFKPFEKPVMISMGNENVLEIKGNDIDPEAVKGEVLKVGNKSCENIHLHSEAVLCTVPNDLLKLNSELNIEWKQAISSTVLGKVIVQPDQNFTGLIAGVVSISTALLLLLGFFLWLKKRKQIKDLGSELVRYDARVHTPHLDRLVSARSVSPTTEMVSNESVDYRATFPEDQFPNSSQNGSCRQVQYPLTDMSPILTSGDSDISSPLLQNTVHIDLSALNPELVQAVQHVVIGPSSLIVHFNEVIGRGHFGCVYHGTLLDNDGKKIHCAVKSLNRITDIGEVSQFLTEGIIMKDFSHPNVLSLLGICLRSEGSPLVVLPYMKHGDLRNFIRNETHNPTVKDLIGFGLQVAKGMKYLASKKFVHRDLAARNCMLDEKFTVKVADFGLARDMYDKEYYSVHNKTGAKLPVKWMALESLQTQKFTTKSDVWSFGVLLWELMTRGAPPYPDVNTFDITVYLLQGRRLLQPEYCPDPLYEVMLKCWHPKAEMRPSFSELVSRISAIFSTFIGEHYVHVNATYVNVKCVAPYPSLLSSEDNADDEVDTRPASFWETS

Surface bound Ab(%) [1]: 98% | FITC MFI [4° C. control] (FITC geo-mean (MFI)) [2]: 1760 | FITC MFI [37° C. exp.] (FITC geo-mean (MFI)) [3]: 1720
B1: OA-5D5 (Genentech) (antibody, INN chains, looked up, V domains shown)
VH: EVQLVESGGGLVQPGGSLRLSCAASGYTFTSYWLHWVRQAPGKGLEWVGMIDPSNSDTRFNPNFKDRFTISADTSKNTAYLQMNSLRAEDTAVYYCATYRSYVTPLDYWGQGTLVTVSS
VL: DIQMTQSPSSLSASVGDRVTITCKSSQSLLYTSSQKNYLAWYQQKPGKAPKLLIYWASTRESGVPSRFSGSGSGTDFTLTISSLQPEDFATYYCQQYYAYPWTFGQGTKVEIK
modifications: one-armed

A450 nm-A570 nm (A450 nm-A570 nm) [4]: 0 | A450 nm-A570 nm (A450 nm-A570 nm) [5]: 0 | A450 nm-A570 nm (A450 nm-A570 nm) [6]: 0 | A450 nm-A570 nm (A450 nm-A570 nm) [7]: 0.01 and 0.02
B2: hu8C4 (IgG1 humanized antibody having a hinge region of SEQ ID NO: 38 in hu8C4-1) (antibody, V domains shown)
VH: EVQLVESGGGLVQPGGSLRLSCAASGYTFSDYYINWVRQAPGKGLEWIGEIFPGSGNTHFSARFKGRATLSADKSKNTAYLQMNSLRAEDTAVYYCAGGDYGFLYWGQGTLVTVSS
VL: DIQMTQSPSSLSASVGDRVTITCGASENIYGALNWYQQKPGKAPKLLIYGATNLADGVPSRFSGSGSGRDFTFTISSLQPEDIATYYCQNVLSSPYTFGQGTKVEIK
